Reference: the supplement of paper PMC10567573

B1: NEK8 (parent)
chain: VVGTPCYISPELCEGKPYNQKSDI
B2: C1orf137 (parent)
chain: LPQETNLTLKVCKPQAPQKLDPTL

Variants of: B1
Test: protein stability index of a GFP-peptide fusion (GPS, HEK-293T) (PSI 1-6); higher = more stable
Conditions: c terminus: a fixed tail appended
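Further: lentivirally expressed fusions sorted by FACS into six bins by GFP to DsRed ratio, PSI derived from sequencing read proportions per bin multiplied by bin number.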

Row | Variant | protein stability index
1 | VVYTPCYISPELCEGKPYNQKSDI | 1.65
2 | VVMTPCYISPELCEGKPYNQKSDI | 1.84
3 | VVVTPCYISPELCEGKPYNQKSDI | 2.07
4 | VVQTPCYISPELCEGKPYNQKSDI | 2.5
5 | VVDTPCYISPELCEGKPYNQKSDI | 3.26
6 | VVNTPCYISPELCEGKPYNQKSDI | 3.52
7 | VVATPCYISPELCEGKPYNQKSDI | 2.31
8 | VVPTPCYISPELCEGKPYNQKSDI | 3.38
9 | VVSTPCYISPELCEGKPYNQKSDI | 3.01
10 | VVRTPCYISPELCEGKPYNQKSDI | 2.74
11 | VVWTPCYISPELCEGKPYNQKSDI | 2.05
12 | VVKTPCYISPELCEGKPYNQKSDI | 2.9
13 | VVLTPCYISPELCEGKPYNQKSDI | 1.63
14 | VVHTPCYISPELCEGKPYNQKSDI | 2.74
15 | VVFTPCYISPELCEGKPYNQKSDI | 1.48
16 | VVTTPCYISPELCEGKPYNQKSDI | 3.01
17 | VVETPCYISPELCEGKPYNQKSDI | 2.7
18 | VVCTPCYISPELCEGKPYNQKSDI | 2.23
19 | VVITPCYISPELCEGKPYNQKSDI | 1.8
20 | VVGNPCYISPELCEGKPYNQKSDI | 3.87
21 | VVGYPCYISPELCEGKPYNQKSDI | 2.25
22 | VVGEPCYISPELCEGKPYNQKSDI | 4.08
23 | VVGCPCYISPELCEGKPYNQKSDI | 2.85
24 | VVGLPCYISPELCEGKPYNQKSDI | 2.39
25 | VVGFPCYISPELCEGKPYNQKSDI | 2.21
26 | VVGDPCYISPELCEGKPYNQKSDI | 3.72

Row | Variant | protein stability index
27 | VVGIPCYISPELCEGKPYNQKSDI | 1.75
28 | VVGAPCYISPELCEGKPYNQKSDI | 2.95
29 | VVGMPCYISPELCEGKPYNQKSDI | 2.78
30 | VVGPPCYISPELCEGKPYNQKSDI | 3.46
31 | VVGHPCYISPELCEGKPYNQKSDI | 3.02
32 | VVGSPCYISPELCEGKPYNQKSDI | 3.68
33 | VVGWPCYISPELCEGKPYNQKSDI | 2.13
34 | VVGGPCYISPELCEGKPYNQKSDI | 3.34
35 | VVGVPCYISPELCEGKPYNQKSDI | 1.99
36 | VVGRPCYISPELCEGKPYNQKSDI | 2.79
37 | VVGKPCYISPELCEGKPYNQKSDI | 3.45
38 | VVGQPCYISPELCEGKPYNQKSDI | 4.19
39 | RVGTPCYISPELCEGKPYNQKSDI | 3.74
40 | FVGTPCYISPELCEGKPYNQKSDI | 1.22
41 | CVGTPCYISPELCEGKPYNQKSDI | 3.31
42 | IVGTPCYISPELCEGKPYNQKSDI | 2.32
43 | NVGTPCYISPELCEGKPYNQKSDI | 4.48
44 | WVGTPCYISPELCEGKPYNQKSDI | 2.62
45 | YVGTPCYISPELCEGKPYNQKSDI | 2.88
46 | GVGTPCYISPELCEGKPYNQKSDI | 4.28
47 | KVGTPCYISPELCEGKPYNQKSDI | 4.06
48 | AVGTPCYISPELCEGKPYNQKSDI | 3.78
49 | PVGTPCYISPELCEGKPYNQKSDI | 4.25
50 | QVGTPCYISPELCEGKPYNQKSDI | 4.14
51 | EVGTPCYISPELCEGKPYNQKSDI | 4.48
52 | LVGTPCYISPELCEGKPYNQKSDI | 3.1

Row | Variant | protein stability index
53 | HVGTPCYISPELCEGKPYNQKSDI | 2.77
54 | MVGTPCYISPELCEGKPYNQKSDI | 3.42
55 | TVGTPCYISPELCEGKPYNQKSDI | 3.76
56 | SVGTPCYISPELCEGKPYNQKSDI | 4.03
57 | DVGTPCYISPELCEGKPYNQKSDI | 4.53
58 | VDGTPCYISPELCEGKPYNQKSDI | 3.9
59 | VPGTPCYISPELCEGKPYNQKSDI | 3.44
60 | VKGTPCYISPELCEGKPYNQKSDI | 3.93
61 | VHGTPCYISPELCEGKPYNQKSDI | 3.68
62 | VNGTPCYISPELCEGKPYNQKSDI | 3.63
63 | VYGTPCYISPELCEGKPYNQKSDI | 3.23
64 | VTGTPCYISPELCEGKPYNQKSDI | 3.73
65 | VQGTPCYISPELCEGKPYNQKSDI | 3.77
66 | VRGTPCYISPELCEGKPYNQKSDI | 3.4
67 | VSGTPCYISPELCEGKPYNQKSDI | 3.75
68 | VMGTPCYISPELCEGKPYNQKSDI | 3.23
69 | VAGTPCYISPELCEGKPYNQKSDI | 3.49
70 | VCGTPCYISPELCEGKPYNQKSDI | 2.89
71 | VIGTPCYISPELCEGKPYNQKSDI | 3.56
72 | VLGTPCYISPELCEGKPYNQKSDI | 3.58
73 | VFGTPCYISPELCEGKPYNQKSDI | 3.12
74 | VEGTPCYISPELCEGKPYNQKSDI | 4.59
75 | VGGTPCYISPELCEGKPYNQKSDI | 3.66
76 | VWGTPCYISPELCEGKPYNQKSDI | 2.8

Variants of: B2
Test: as above
Conditions: c terminus: a fixed tail appended

Row | Variant | protein stability index
77 | LPQETNLTLKVCKPQAPQKLDKTL | 4
78 | LPQETNLTLKVCKPQAPQKLDGTL | 3.39
79 | LPQETNLTLKVCKPQAPQKLDQTL | 4.25
80 | LPQETNLTLKVCKPQAPQKLDFTL | 2.35
81 | LPQETNLTLKVCKPQAPQKLDWTL | 2.83
82 | LPQETNLTLKVCKPQAPQKLDYTL | 3.06
83 | LPQETNLTLKVCKPQAPQKLDCTL | 2.95
84 | LPQETNLTLKVCKPQAPQKLDHTL | 3.13
85 | LPQETNLTLKVCKPQAPQKLDATL | 3.16
86 | LPQETNLTLKVCKPQAPQKLDLTL | 2.93
87 | LPQETNLTLKVCKPQAPQKLDSTL | 2.87
88 | LPQETNLTLKVCKPQAPQKLDNTL | 3.38
89 | LPQETNLTLKVCKPQAPQKLDITL | 2.08
90 | LPQETNLTLKVCKPQAPQKLDMTL | 2.98
91 | LPQETNLTLKVCKPQAPQKLDDTL | 4.38
92 | LPQETNLTLKVCKPQAPQKLDTTL | 3.54
93 | LPQETNLTLKVCKPQAPQKLDRTL | 3.84
94 | LPQETNLTLKVCKPQAPQKLDETL | 4.13
